The results in this text go back to US20240240203A1.

The assay concerns the target Ad5 hexon capsid protein with DogTag inserted into the HVR5 loop, on Ad5 virions (Ad5-HVR5-DogTag) (human adenovirus serotype 5 (Ad5)) (UniProt P04133).

“polyhistidine-tagged recombinant DogCatcher with 18 copies of the NANP repeat sequence from the Plasmodium falciparum circumsporozoite protein fused to the C-terminus”: the ligand coverage (% hexon) was > 90%.
